Data from publication PMC12211734, “In silico and in vitro characterisation and affinity maturation of human red blood cell binding aptamers†”.

Legend:
[1] = target: GLUT1 (glucose transporter band 4.5) (Homo sapiens) (UniProt P11166); experiment: ELONA; conditions: ELONA: protein coated at 10 nM in carbonate/bicarbonate pH 9.6; aptamer (1.5625 nM-5 uM, 95 C 5 min then snap-cooled) in 1x DPBS, 0.55 mM MgCl2, 0.05% …
Glycophorin A [2] = target: T1, Glycophorin A (Homo sapiens, UniProt P02724 20-91); experiment: ELONA; one-site fit, R2 0.948; text says low micromolar; ELONA: protein coated at 10 nM in carbonate/bicarbonate pH 9.6; aptamer (1.5625 nM-5 uM, 95 C 5 min then snap-cooled) in 1x DPBS, 0.55 mM MgCl2, 0.05% Tween-20, 1% BSA, 1 h, room temperature; SA-HRP/TMB read-out at 450 nm; conditions: protein: recombinant; label: 5' biotin; hairpin, 2 loops predicted by Mfold; CD B-DNA-like
Glycophorin A [3] = target: T1, Glycophorin A; experiment: ELONA; one-site fit, R2 0.716; text says low micromolar; ELONA: protein coated at 10 nM in carbonate/bicarbonate pH 9.6; aptamer (1.5625 nM-5 uM, 95 C 5 min then snap-cooled) in 1x DPBS, 0.55 mM MgCl2, 0.05% Tween-20, 1% BSA, 1 h, room temperature; SA-HRP/TMB read-out at 450 nm; conditions: protein: recombinant; label: 5' biotin; hairpin, 2 loops predicted by Mfold; CD indicates parallel G4
Glycophorin A [4] = target: T1, Glycophorin A; experiment: ELONA; one-site fit, R2 0.857; ELONA: protein coated at 10 nM in carbonate/bicarbonate pH 9.6; aptamer (1.5625 nM-5 uM, 95 C 5 min then snap-cooled) in 1x DPBS, 0.55 mM MgCl2, 0.05% Tween-20, 1% BSA, 1 h, room temperature; SA-HRP/TMB read-out at 450 nm; conditions: protein: recombinant; label: 5' biotin; hairpin, 3 loops predicted by Mfold; CD indicates parallel G4

GLUT1 (glucose transporter band 4.5) (Homo sapiens), sequence (P11166 whole entry): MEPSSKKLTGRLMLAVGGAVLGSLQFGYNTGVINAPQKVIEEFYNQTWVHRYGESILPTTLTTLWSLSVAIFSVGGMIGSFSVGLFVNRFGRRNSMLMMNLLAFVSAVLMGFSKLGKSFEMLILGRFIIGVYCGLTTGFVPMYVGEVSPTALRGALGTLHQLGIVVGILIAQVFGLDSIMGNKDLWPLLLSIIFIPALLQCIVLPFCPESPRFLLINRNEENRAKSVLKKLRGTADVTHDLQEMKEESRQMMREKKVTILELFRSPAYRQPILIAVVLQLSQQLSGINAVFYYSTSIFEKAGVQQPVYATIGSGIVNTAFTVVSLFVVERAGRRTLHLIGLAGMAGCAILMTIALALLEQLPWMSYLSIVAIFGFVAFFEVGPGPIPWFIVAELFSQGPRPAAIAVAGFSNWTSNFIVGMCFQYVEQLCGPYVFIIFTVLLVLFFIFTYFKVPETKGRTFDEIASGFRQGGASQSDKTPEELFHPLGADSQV

ATCCAGAGTGACGCAGCACGGGTTGGGGCTGGTTGTGTGTTGTTTTTTTGGCTGTATGTGGACACGGTGGCTTAGT [N1 aptamer (76 nt)]
Kd [1]: 59.5 nM

ATCCAGAGTGACGCAGCATGCGGGGAGAGGAGTGTGGGATGGGTTTGTTTGTTTAGGGTGGACACGGTGGCTTAGT [N4 aptamer (76 nt)]
Kd [1]: 37.6 nM

CTCCTCTGACTGTAACCACGTCGCGGGTAGGGGGAGGGCCGAGGAGGCTGTAGGTGGGTGGCATAGGTAGTCCAGAAGCC [BB1 aptamer (80 nt)]
Kd [1]: 41.6 nM

B1: N1 aptamer (76 nt) (ssDNA)
DNA: ATCCAGAGTGACGCAGCACGGGTTGGGGCTGGTTGTGTGTTGTTTTTTTGGCTGTATGTGGACACGGTGGCTTAGT
Kd (Glycophorin A [2]): 356 ± 95.6 nM

B2: N4 aptamer (76 nt) (structured_DNA)
DNA: ATCCAGAGTGACGCAGCATGCGGGGAGAGGAGTGTGGGATGGGTTTGTTTGTTTAGGGTGGACACGGTGGCTTAGT
Kd (Glycophorin A [3]): 354 ± 227 nM

B3: BB1 aptamer (80 nt) (structured_DNA)
DNA: CTCCTCTGACTGTAACCACGTCGCGGGTAGGGGGAGGGCCGAGGAGGCTGTAGGTGGGTGGCATAGGTAGTCCAGAAGCC
Kd (Glycophorin A [4]): 25 ± 10.3 nM
